From article PMC6287813

Biological target: Rabbit skeletal actin, filamentous (pre-formed actin filament) (rabbit) (UniProt P68135)
Assay: single-filament TIRF microscopy with microfluidics (kymographs); actin filaments tethered at one point through biotinylated spectrin-actin seeds on streptavidin/PLL-PEG-biotin coverslip, stained with 0.15 uM Alexa Fluor 488-phalloidin; AF647-Tpm1.1 flowed in at various concentrations (62.5, 250, 500 nM shown), then washed with buffer only for dissociation; buffer F (5 mM Tris pH 7.8, 100 mM KCl, 1 mM MgCl2, 0.2 mM ATP, 0.2 mM EGTA, 0.1 mM CaCl2, 10 mM DTT, 1 mg/mL BSA)

For “Murine tropomyosin isoform Tpm1.1, labelled with Alexa Fluor 647 at Cys-190 (natural protein)”, the elongation rate of the Tpm1.1 strand on actin per feed concentration, towards the barbed end (nm s^-1 nM^-1) was 0.88, the elongation rate of the Tpm1.1 strand on actin per feed concentration, towards the pointed end (nm s^-1 nM^-1) was 1.1 and the nucleation time tnuc (Kaplan-Meier estimate, filament of Fig 3C, 62.5 nM Tpm1.1) was 1370 s. The weighted average elongation rate on one filament, towards the barbed end was 136 nm/s and the weighted average elongation rate on one filament, towards the pointed end was 104 nm/s.
